# Laboratory results reported in publication PMC10996005 (2024).
# *1 amine or outer side, *2 acyl side, *3 side chain or, on linkers, in order; H or OH if unused. [ ]: non-standard residue; d: D form. Phe(4-OMe) = COc1ccc(C[C@H](N[*:1])C(=O)[*:2])cc1; Phe(4-I) = N[C@@H](Cc1ccc(I)cc1)C(=O)O; 1Nal = N[C@@H](Cc1cccc2ccccc12)C(=O)O; hPhe = N[C@@H](CCc1ccccc1)C(=O)O; 4Pal = N[C@@H](Cc1ccncc1)C(=O)O; Phg = N[C@H](C(=O)O)c1ccccc1
# Experiments:
# HIF-1α PAS-B [1] = molecular target: T1, HIF-1α PAS-B (Homo sapiens, UniProt Q16665); assay: MST
# HIF-2α PAS-B [2] = molecular target: HIF-2α PAS-B (Homo sapiens, UniProt Q99814); assay: MST
# Target sequence in this assay (Q99814 240-350): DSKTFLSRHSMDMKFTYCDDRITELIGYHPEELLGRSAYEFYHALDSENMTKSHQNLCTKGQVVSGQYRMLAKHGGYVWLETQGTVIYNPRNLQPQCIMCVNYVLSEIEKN
# HIF-1α PAS-B [3] = molecular target: T1, HIF-1α PAS-B; assay: FP
# HIF-2α PAS-B [4] = molecular target: HIF-2α PAS-B (Homo sapiens, UniProt Q99814); assay: MST; remark: listed apart in the source
# Target sequence in this assay (Q99814 240-350 G323E): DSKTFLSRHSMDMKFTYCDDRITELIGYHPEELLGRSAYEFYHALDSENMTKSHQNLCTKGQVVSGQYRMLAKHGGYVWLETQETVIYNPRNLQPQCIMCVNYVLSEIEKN
# T1 sequence (Q16665 238-349): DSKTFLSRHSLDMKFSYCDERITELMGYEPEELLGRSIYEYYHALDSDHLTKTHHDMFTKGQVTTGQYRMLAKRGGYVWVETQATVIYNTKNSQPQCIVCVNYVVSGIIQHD
Binder,Kd (HIF-1α PAS-B [1]),other results
CKLIIF (head-to-tail cyclic peptide) [cyclo-CKLIIF],2.6 µM,Kd (HIF-2α PAS-B [2]): 2.2 µM
CRLLIF (head-to-tail cyclic peptide) [cyclo-CRLLIF],14.5 µM,Kd (HIF-2α PAS-B [2]): 10.2 µM
cyclo(CRLII[1Nal]) (SMILES CC[C@H](C)[C@@H]1NC(=O)[C@H](CC(C)C)NC(=O)[C@H](CCCNC(=N)N)NC(=O)[C@H](CS)NC(=O)[C@H](Cc2cccc3ccccc23)NC(=O)[C@H]([C@@H](C)CC)NC1=O) [cyclo-CRLII(1-Nal)],1.7 µM,–
cyclo(CRLII[Phe(4-OMe)]) [cyclo-CRLII(4-OMe)F],11.2 µM,–
cyclo(CRLIIF) (also: Cy5-labeled HIF-1α),–,Kd (HIF-1α PAS-B [3]): 4.6 µM
CRVIIF (head-to-tail cyclic peptide) [cyclo-CRVIIF],65 µM,Kd (HIF-2α PAS-B [2]): 123 µM
CRLIIF (head-to-tail cyclic peptide),3.8 µM,–
cyclo(CRLII[dF]) (SMILES CC[C@H](C)[C@@H]1NC(=O)[C@H](CC(C)C)NC(=O)[C@H](CCCNC(=N)N)NC(=O)[C@H](CS)NC(=O)[C@@H](Cc2ccccc2)NC(=O)[C@H]([C@@H](C)CC)NC1=O) [cyclo-CRLII(D-F)],6.2 µM,–
CKLLIF (head-to-tail cyclic peptide) [cyclo-CKLLIF],12 µM,–
cyclo(CRLII[hPhe]) (SMILES CC[C@H](C)[C@@H]1NC(=O)[C@H](CC(C)C)NC(=O)[C@H](CCCNC(=N)N)NC(=O)[C@H](CS)NC(=O)[C@H](CCc2ccccc2)NC(=O)[C@H]([C@@H](C)CC)NC1=O) [cyclo-CRLII(hF)],1.2 µM,–
cyclo(CRLII[4Pal]) (SMILES CC[C@H](C)[C@@H]1NC(=O)[C@H](CC(C)C)NC(=O)[C@H](CCCNC(=N)N)NC(=O)[C@H](CS)NC(=O)[C@H](Cc2ccncc2)NC(=O)[C@H]([C@@H](C)CC)NC1=O) [cyclo-CRLII(4-Pal)],39.6 µM,–
"cyclo(CRLII[Phe(4-I)]) (SMILES CC[C@H](C)[C@@H]1NC(=O)[C@H](CC(C)C)NC(=O)[C@H](CCCNC(=N)N)NC(=O)[C@H](CS)NC(=O)[C@H](Cc2ccc(I)cc2)NC(=O)[C@H]([C@@H](C)CC)NC1=O) [cyclo-CRLII(4-iodo)F, listing 1 of 2 here]",–,Kd (HIF-2α PAS-B [4]): 7.2 µM
cyclo(CRLII[Phg]) (SMILES CC[C@H](C)[C@@H]1NC(=O)[C@H](CC(C)C)NC(=O)[C@H](CCCNC(=N)N)NC(=O)[C@H](CS)NC(=O)[C@H](c2ccccc2)NC(=O)[C@H]([C@@H](C)CC)NC1=O) [cyclo-CRLII(Phg)],5.8 µM,–
"cyclo(CRLII[Phe(4-I)]) (SMILES CC[C@H](C)[C@@H]1NC(=O)[C@H](CC(C)C)NC(=O)[C@H](CCCNC(=N)N)NC(=O)[C@H](CS)NC(=O)[C@H](Cc2ccc(I)cc2)NC(=O)[C@H]([C@@H](C)CC)NC1=O) [cyclo-CRLII(4-iodo)F, listing 2 of 2 here]",0.821 µM,Kd (HIF-2α PAS-B [2]): 1.7 µM
cyclo(CRLII[Phe(4-Bz)]) [cyclo-CRLII(4-Bz)F],1.6 µM,–
